# Data: US20260234280A1
# What was measured:
# [1] = molecular target: human CD3 recombinant protein (Acro, Cat. No. CDD-H52W1) (human) (UniProt P07766); assay: SPR (Biacore), CD3 immobilised on CM5 chip, antibody as analyte, 1:1 model
# [2] = molecular target: cynomolgus monkey CD3 recombinant protein (Acro, Cat. No. CDD-C52W4) (cynomolgus monkey) (UniProt Q95LI5); assay: as above
# [3] = molecular target: human GPRC5D (human-GPRC5D) (human) (UniProt Q9NZD1); assay: flow cytometry (FACS), human GPRC5D-CHOK1 cells
# [4] = molecular target: human CD3 naturally expressed on Jurkat T lymphocytes and human PBMCs (human) (UniProt P07766); assay: flow cytometry (FACS), human PBMCs
# [5] = molecular target: cynomolgus monkey BCMA recombinant protein (Acro, Cat. No. BCA-C52H7) (cynomolgus monkey); assay: SPR (Biacore), antibody captured by anti-human IgG (Fc) on CM5 chip, BCMA as analyte, 1:1 model
# [6] = molecular target: human BCMA recombinant protein (Acro, Cat. No. BCA-H522y) (human) (UniProt Q02223); assay: as above
# [7] = molecular target: human BCMA (human-BCMA) (human) (UniProt Q02223); assay: flow cytometry (FACS), RPMI8226 cells
# [8] = molecular target: human BCMA (human-BCMA) (human) (UniProt Q02223); assay: flow cytometry (FACS), human BCMA-CHOK1 cells
# [9] = molecular target: human CD3 naturally expressed on Jurkat T lymphocytes and human PBMCs (human) (UniProt P07766); assay: flow cytometry (FACS), Jurkat cells
# [10] = molecular target: cynomolgus monkey BCMA (cyno-BCMA) (cynomolgus monkey); assay: flow cytometry (FACS), cynomolgus monkey BCMA-CHOK1 cells
# [11] = molecular target: cynomolgus monkey CD3 naturally expressed on cyno PBMCs (cynomolgus monkey) (UniProt Q95LI5); assay: flow cytometry (FACS), cyno PBMCs
# [12] = molecular target: human BCMA (human-BCMA) (human) (UniProt Q02223); assay: flow cytometry (FACS), NCI-H929 cells
# [13] = molecular target: human BCMA (human-BCMA) (human) (UniProt Q02223); assay: cell-based or functional assay
# soluble BCMA = soluble BCMA (UniProt Q02223); assay: cell-based or functional assay
# [14] = molecular target: human BCMA and human GPRC5D, the dual targets expressed on NCI-H929 and RPMI8226 tumor cells; assay: flow cytometry (FACS), RPMI8226 cells
# [15] = molecular target: human BCMA and human GPRC5D, the dual targets expressed on NCI-H929 and RPMI8226 tumor cells; assay: flow cytometry (FACS), NCI-H929 cells
# Chain of human BCMA (human-BCMA) (human) (Q02223 whole entry): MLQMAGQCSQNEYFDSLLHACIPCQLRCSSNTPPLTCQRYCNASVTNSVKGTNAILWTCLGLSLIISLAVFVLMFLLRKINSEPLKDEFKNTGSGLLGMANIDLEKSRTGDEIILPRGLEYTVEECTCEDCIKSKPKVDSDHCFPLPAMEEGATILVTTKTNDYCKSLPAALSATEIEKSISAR
# Chain of human CD3 naturally expressed on Jurkat T lymphocytes and human PBMCs (human) (P07766 23-207): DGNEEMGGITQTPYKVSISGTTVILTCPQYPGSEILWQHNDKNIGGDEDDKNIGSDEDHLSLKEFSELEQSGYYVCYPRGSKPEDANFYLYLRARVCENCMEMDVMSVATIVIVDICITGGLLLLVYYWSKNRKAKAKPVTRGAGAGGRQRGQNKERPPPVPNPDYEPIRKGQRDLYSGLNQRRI
# Chain of cynomolgus monkey CD3 recombinant protein (Acro, Cat. No. CDD-C52W4) (cynomolgus monkey) (Q95LI5 22-117): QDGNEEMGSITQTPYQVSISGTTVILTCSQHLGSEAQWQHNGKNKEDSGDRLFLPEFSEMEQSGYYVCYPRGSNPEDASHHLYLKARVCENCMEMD
# Chain of human CD3 recombinant protein (Acro, Cat. No. CDD-H52W1) (human) (P07766 23-126): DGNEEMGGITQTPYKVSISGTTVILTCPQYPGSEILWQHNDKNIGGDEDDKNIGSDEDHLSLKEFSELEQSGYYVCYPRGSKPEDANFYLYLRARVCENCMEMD
# Chain of soluble BCMA (Q02223 1-54 limits assumed): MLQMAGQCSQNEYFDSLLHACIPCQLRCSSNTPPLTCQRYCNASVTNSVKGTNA
# Chain of human BCMA recombinant protein (Acro, Cat. No. BCA-H522y) (human) (Q02223 1-54 limits assumed): as above
# Chain of cynomolgus monkey BCMA (cyno-BCMA) (cynomolgus monkey) (Q02223 other isoform, or with tags, fused parts or gaps): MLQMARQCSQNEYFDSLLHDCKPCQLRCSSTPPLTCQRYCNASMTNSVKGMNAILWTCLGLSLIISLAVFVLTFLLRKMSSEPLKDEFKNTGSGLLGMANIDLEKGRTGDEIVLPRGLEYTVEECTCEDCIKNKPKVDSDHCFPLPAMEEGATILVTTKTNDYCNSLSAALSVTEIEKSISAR
# Chain of cynomolgus monkey CD3 naturally expressed on cyno PBMCs (cynomolgus monkey) (Q95LI5 22-198): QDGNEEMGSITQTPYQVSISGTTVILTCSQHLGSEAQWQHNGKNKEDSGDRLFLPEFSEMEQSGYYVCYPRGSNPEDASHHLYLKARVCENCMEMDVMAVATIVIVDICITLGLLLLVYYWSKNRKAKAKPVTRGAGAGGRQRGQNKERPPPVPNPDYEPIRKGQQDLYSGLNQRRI
# Chain of human GPRC5D (human-GPRC5D) (human) (Q9NZD1 whole entry): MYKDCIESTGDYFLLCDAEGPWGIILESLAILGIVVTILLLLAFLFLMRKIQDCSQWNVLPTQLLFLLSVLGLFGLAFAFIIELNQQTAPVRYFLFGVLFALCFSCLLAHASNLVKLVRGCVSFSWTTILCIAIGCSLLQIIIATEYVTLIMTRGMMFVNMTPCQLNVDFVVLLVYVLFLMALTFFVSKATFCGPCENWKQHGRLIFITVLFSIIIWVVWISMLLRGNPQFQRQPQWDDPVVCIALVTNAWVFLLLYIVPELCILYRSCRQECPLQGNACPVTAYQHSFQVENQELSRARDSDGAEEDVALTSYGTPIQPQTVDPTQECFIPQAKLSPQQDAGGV
substance,measurement,setting,value
"Talquetamab analogue (GPRC5D/CD3), GPRC5DxCD3 bispecific antibody from Janssen",Kd,[1],18 nM
same,koff,[1],0.00201 s⁻¹
same,kon,[1],112000 M⁻¹ s⁻¹
same,Kd,[2],22.2 nM
same,koff,[2],0.00379 s⁻¹
same,kon,[2],170000 M⁻¹ s⁻¹
"Teclistamab analogue (BCMA/CD3), BCMAxCD3 bispecific antibody from Janssen",Top MFI,[3],160 MFI
same,Kd,[1],21 nM
same,koff,[1],0.00522 s⁻¹
same,kon,[1],248000 M⁻¹ s⁻¹
same,Kd,[2],21.1 nM
same,koff,[2],0.00336 s⁻¹
same,kon,[2],159000 M⁻¹ s⁻¹
same,EC50,[4],6.06 nM
same,Top MFI,[4],672 MFI
same,Kd,[5],8.49 nM
same,koff,[5],0.0235 s⁻¹
same,kon,[5],2.77e+06 M⁻¹ s⁻¹
same,Kd,[6],0.379 nM
same,koff,[6],0.00135 s⁻¹
same,kon,[6],3.55e+06 M⁻¹ s⁻¹
same,EC50,[7],1.17 nM
same,Top MFI,[7],169 MFI
same,EC50,[8],2.63 nM
same,Top MFI,[8],2280 MFI
same,EC50,[9],3.22 nM
same,Top MFI,[9],825 MFI
same,EC50,[10],15.3 nM
same,Top MFI,[10],1770 MFI
same,EC50,[11],55.8 nM
same,Top MFI,[11],2060 MFI
same,EC50,[12],2.43 nM
same,Top MFI,[12],669 MFI
same,TDCC Cytotoxicity (max) on NCI-H929 with 0 ug/ml BCMA,[13],40.9
same,TDCC EC50 (nM) on NCI-H929 with 0 ug/ml BCMA,[13],0.115 nM
same,"Ratio (EC50), TDCC on NCI-H929 with 2.5 ug/ml against 0 ug/ml BCMA",soluble BCMA,21
same,TDCC Cytotoxicity (max) on NCI-H929 with 2.5 ug/ml BCMA,soluble BCMA,53.9
same,TDCC EC50 (nM) on NCI-H929 with 2.5 ug/ml BCMA,soluble BCMA,2.36 nM
same,fold change of TDCC EC50 on NCI-H929 in the presence of 2500 ng/ml soluble BCMA,soluble BCMA,25 fold
"hIgG1 LALA isotype (Biointron, Cat. No. B109802) (antibody)",Top MFI,[14],112 MFI
same,Top MFI,[15],104 MFI
